According to article PMC8560813:

What was measured:
[1] = target: heme (acquired from hemoglobin resin); assay: visible spectroscopy after incubation with hemoglobin resin; conditions: mean difference before and after incubation with beads, three independent experiments; parent: est. 0.40; read off a plot
[2] = target: bovine holo hemoglobin, P01966;P02070; assay: pull-down (hemoglobin resin, anti-His Western, band intensity quantified); conditions: three independent pull-down experiments; parent: est. 7.5; read off a plot

With “apo HphA (hemophilin), N-terminal 6X His tagged, heme stripped by acid-acetone extraction (from UniProt A0A059ZRB8) H43A; H106A” the response [1] was 0.03 ΔAbsorbance and the response [2] was 1.5 % of Input.
